Experimental data from paper PMC4469990 (2015).
Read-outs that look alike come from different tables or passages of the source. Each block holds one molecule with its values, some of them ahead of it.

What was measured:
[1] = biological target: Factor VIII A3C1C2 subunit A3C1C2 (Homo sapiens) (UniProt P00451); details: cited from earlier work
[2] = biological target: Factor VIII A1/A3C1C2 dimer A1/A3C1C2 (Homo sapiens) (UniProt P00451); details: cited from earlier work
[3] = biological target: Factor VIII A1/A3C1C2 dimer A1/A3C1C2 (Homo sapiens) (UniProt P00451); test: FXa generation assay; details: cited from earlier work
[4] = biological target: T1, Factor VIIIa A1/A3C1C2 dimer A1/A3C1C2 (Homo sapiens, UniProt P00451); test: FVIIIa reconstitution assay
T1 chain 1: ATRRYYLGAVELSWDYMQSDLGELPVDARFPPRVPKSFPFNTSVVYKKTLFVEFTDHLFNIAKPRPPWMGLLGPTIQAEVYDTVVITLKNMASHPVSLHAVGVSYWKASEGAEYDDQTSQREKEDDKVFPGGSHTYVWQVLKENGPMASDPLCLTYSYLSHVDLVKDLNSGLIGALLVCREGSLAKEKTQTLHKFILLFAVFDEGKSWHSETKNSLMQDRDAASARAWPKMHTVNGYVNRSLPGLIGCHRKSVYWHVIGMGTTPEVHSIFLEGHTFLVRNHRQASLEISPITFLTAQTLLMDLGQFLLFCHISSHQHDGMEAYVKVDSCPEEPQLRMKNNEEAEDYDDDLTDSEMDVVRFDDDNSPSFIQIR
T1 chain 2: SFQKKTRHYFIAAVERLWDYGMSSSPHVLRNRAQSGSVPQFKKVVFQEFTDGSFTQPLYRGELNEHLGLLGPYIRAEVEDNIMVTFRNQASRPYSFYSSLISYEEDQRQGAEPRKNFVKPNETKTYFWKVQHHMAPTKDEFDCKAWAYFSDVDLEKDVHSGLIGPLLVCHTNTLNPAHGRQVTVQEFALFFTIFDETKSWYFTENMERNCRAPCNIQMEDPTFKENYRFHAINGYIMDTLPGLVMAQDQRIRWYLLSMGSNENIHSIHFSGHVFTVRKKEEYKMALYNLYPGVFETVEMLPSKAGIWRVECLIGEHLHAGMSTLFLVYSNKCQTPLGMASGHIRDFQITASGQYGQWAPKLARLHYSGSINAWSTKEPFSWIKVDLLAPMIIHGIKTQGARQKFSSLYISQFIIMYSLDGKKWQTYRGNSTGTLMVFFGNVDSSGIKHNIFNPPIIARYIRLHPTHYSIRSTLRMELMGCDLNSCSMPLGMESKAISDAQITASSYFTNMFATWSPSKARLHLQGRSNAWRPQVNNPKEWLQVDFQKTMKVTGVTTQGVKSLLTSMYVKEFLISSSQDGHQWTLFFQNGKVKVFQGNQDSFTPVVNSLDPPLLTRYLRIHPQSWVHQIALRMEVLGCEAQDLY

Molecule: Factor VIII A1 subunit A1 (from UniProt P00451)
- Kd [1]: 60 nM

Molecule: Factor VIII A2 subunit A2 (from UniProt P00451)
- Kd [2]: 260 nM
- Kd [3]: 30 nM

Other lines, results leading:

- Kd [4]: 56.3 nM
B1: Factor VIIIa A2 subunit A2 (protein)
chain: SVAKKHPKTWVHYIAAEEEDWDYAPLVLAPDDRSYKSQYLNNGPQRIGRKYKKVRFMAYTDETFKTREAIQHESGILGPLLYGEVGDTLLIIFKNQASRPYNIYPHGITDVRPLYSRRLPKGVKHLKDFPILPGEIFKYKWTVTVEDGPTKSDPRCLTRYYSSFVNMERDLASGLIGPLLICYKESVDQRGNQIMSDKRNVILFSVFDENRSWYLTENIQRFLPNPAGVQLEDPEFQASNIMHSINGYVFDSLQLSVCLHEVAYWYILSIGAQTDFLSVFFSGYTFKHKMVYEDTLTLFPFSGETVFMSMENPGLWILGCHNSDFRNRGMTALLKVSSCDKNTGDYYEDSYEDISAYLLSKNNAIEPR

- Kd [4]: 10 nM
B2: Factor VIIIa A2 subunit A2 (protein)
chain: SVAKKHPKTWVHYIAAEEEDWDYAPLVLAPDDRSYKSQYLNNGPQRIGRKYKKVRFMAYTDETFKTREAIQHESGILGPLLYGEVGDTLLIIFKNQASRPYNIYPHGITDVRPLYSRRLPKGVKHLKVFPILPGEIFKYKWTVTVEDGPTKSDPRCLTRYYSSFVNMERDLASGLIGPLLICYKESVDQRGNQIMSDKRNVILFSVFDENRSWYLTENIQRFLPNPAGVQLEDPEFQASNIMHSINGYVFDSLQLSVCLHEVAYWYILSIGAQTDFLSVFFSGYTFKHKMVYEDTLTLFPFSGETVFMSMENPGLWILGCHNSDFRNRGMTALLKVSSCDKNTGDYYEDSYEDISAYLLSKNNAIEPR
